# Experiment: soluble on expression in E. coli; label from the status in PepcDB or PDB records
row,Sequence,soluble on expression in E. coli
1,MGSDKIHHHHHHMPTLPMPSFLSSYWESSFNLKQHIQEFLQLDAEILETKLEFGQQQMAELGHKDFDWEQATAFYRDKVGEVYLFELGAWHLASHDYIGDTLRLIADHAHGCVLDFGGGIGTHAIGAALCPHVEQVVYCDINPINFDFVKYRAEKLGLSEKIIFCVEIPPQKTFDTIMSFDVLEHLPDPSQQLLEFHQILADEGKMILNWHFFKGFNQEHPFHLDDPQAIDTFFKTIQSNCLEVFHPYHITARCYRKWN,not soluble
2,MRRARIQIKPNISKAAKQEPPPEPAPVVEETLPQAPVVAEPRILENVETMTNQVSLTVASESMKSLHVDTSKNHHVHFTDDVIDNEQNRIQETPDIVMISPTSQQNAQFASPNPPARLTPRSRNVSMCEDEAILQPKQPRDKKRFSGREELDTKTWKMSDLTRWNPKNEMTRFKRERRSSTSSSVITKSEIGDLDAPPAPRINAPQVKIGADGRLVIDETSLVVHSAQINHESVWETVEEGRMGAKITSMSFRKRGFGKSSFWSEKETDLFYEVLQCTGQDFGLMSHYLPKRTRPELKAKYNREEKINWARVLNAISHPVRLDGNLEVRISKLMTEMEEEAQEKKAKGEYEKAEEKRIREQNRLQKATERNQAKELVKQAKELERDARNAAKLNMKADKEARAQEKSETRQLEKTALKEARLMATEAKRIAMEARAIIKESRKLEKSKKADSVQSDSHNLEREAERIIRRLLQESQREDRRTAHFNKNDKPAAPKSTEEATTSEVSAPTKSPAPVVVTIDASEGELGDTSTDAADSSSASSSDDDALRKDAARREKQRMKEARRNLKPRKTVADKKPVYVDTTDPKYAQQKVSRAVEMVLKANGNMFDSAGEQDDDFPDPDEMETSAEPVVVEEVAPDPTPPPPENMEENVVEESVPQSVIDVVEEIMRGRSKTPVETAVKPLENTEESKTDGEDRKKRSADVDSGGPSPKVARLEGVDVPVEDSTEVATSSTVTSSSAPSSSSSTTVAPAIKPSTAPKPAIASARRTVKKPNTWSKKK,not soluble
3,MSLNHILETLIKLLKVGMEAIDRKGLIAILTSSIGNDEMDDSEQAVMVYNELIDKLQLNIPKDVDYRPNIYSYFGIQKKPNDTILVEMMISIFHIKRFDSELFVFKDKGWQKVNEDELQGLISKMIQVLLVDYKPSLSILKNVVVGLQNSIDVEELVENKQYIGCGHNMFNLDAFEVVGNSIKIFPATRLNLELVKSDVITEKTPPHFNRYMLEFANFDSDLQYFLFQHIAVLLTANTKYRRALLLYGGAKNGKSVFINLVRSFFYSEDIVSKALNELQGRFDKESLVGKKLMASDEIGESRIQEKIVNDLKKLVSVEPVHVDRKGKTQVETTLDLKLAFGTNARLNFPSAHAKALERRIAVIPCEYYVEKADPDLIEKLQDEKKEIFLYLMYVYKQIVKNDIEYLQNDRVTEISHDWLNFGYEFVSSKSASIANQKACINLLRKLIEIKPGSRIKVSELNKVINEEIKVSSQVIKQLIQANFDTQTKLYNGYDYWIDLGWKEADKKEIHDISKKDNIISLDKNENITDDETLDEENLDFDWEDFDDEGHHHHHH,soluble
4,MGSSHHHHHHSSGRENLYFQGMHYQPKQDLLNDRIILVTGASDGIGREAAMTYARYGATVILLGRNEEKLRQVASHINEETGRQPQWFILDLLTCTSENCQQLAQRIVVNYPRLDGVLHNAGLLGDVCPMSEQNPQVWQDVMQINVNATFMLTQALLPLLLKSDAGSLVFTSSSVGRQGRANWGAYAASKFATEGMMQVLADEYQQRLRVNCINPGGTRTAMRASAFPTEDPQKLKTPADIMPLYLWLMGDDSRRKTGMTFDAQPGRKPGISQ,soluble
5,MGSDKIHHHHHHMRERAAVPPRAVQHSDDVAMVLRMDQPDFIQITDDAVSRDDCAAIVQRMRDSQQLQPGRIGSGVFPDLKHSRDLRISGLADWAAVENRLQQAVFEGLLRYLRQYPQALISPLMLQVTTADGTPHRLVAEDIAQMSDAALSDLARTCLRPGAINLQWYLADQGGYPYWHCELYPRDAGAETLHRHLLWTLYLNEEFEQGETEFLFQQRKARPRTGSLLIAPTAFTHTHRGNRPVGGDKFIATSWILFQSAQALYGGE,not soluble
6,MMLRTEEMILNVGPQHPSTHGVFRLILKIDGEIIQEATPVIGYLHRGTEKIAEGLQYTQIIPYTDRMDYLSAMTNNYVLCHAVETMMGIEVPERAEYLRVLAMELGRIASHLVWWGTYLLDLGATSPFLYAFREREMIINLLNELSGARLTFNYMRIGGVKWDAPDGWIDKVKQFVPYMREKLHGYHELVTGNEIFRQRVTGVGRYTKEEAISYSLSGVNLRSTGVKWDLRKDEPYSIYDRFDFDVPVRDSGDCLARYECRMAEIEQSLCIIEQACEQFPPEGPIMGKVPRIIKAPPGETFVRIEAPRGEIGCYIASDGKKEPYRLKFRRPSFYNLQILPKLLKGENLANVIAILGSIDIVLGEVDG,not soluble
7,MAEAGDENLYAAARDIARALGKDPSAAGDILQILSGYGASGNRGGDPRPTPSRGGSNVNFDRALTSLERQISSYIVEDRPIWSDPVDSRTFLDSVDELLAIAGDLRSMAGDKSVAVCQSRADELIQQVMFRLQEEFGFVMDRAPDSFDSDDEFPGEEDNDTSDGVIVARPITDYKIVIEALQSSVIGDLNAIAVRMVAGGFAKECSRVYSSRRREFLEESLSRLHLRGLSMEEVQESPWQDLEDEIDRWIKAVTLIFHVFFPSERLLCDRVFSDLPVSSVTDLSFMEVCRGTTTQLLNFADAIALGSRLPERLFKVVDLYEAMQDLIPKMETLFSDRYCSPLRHEALAIHKRLGEAIRGIFMELENLIRRDPPKTAFPGGGIHPITRYVMNYLRAACKSRQSLEQILDQTGNETGSDTRPLSVQIIWVLELLESNLEGKKRTYRDPSLCFLFMMNNDKYILDKAKDNELGLVLGEDWIVKHAAKLRQYHSNYRRSSWNQVVGLLRTDGPYPKLVENLRLFKSQFDEVCKVQSQWVVSDGQLREELRSSVAGIVSPAYSNFIRRLKESPEINGRRGEPFIPYTVEDVEFIIKRLFKESSS,soluble
8,MGSDKIHHHHHHCEDIFNDLAVNPNQSDVNSFYTTLENCNKGILGIYGYISTPRNLGACGFGLMLTRSDEGCSVADYGVPGAYNEEFTPSYYSLVQPFQLMYTAASQANQMIESLTEIEFSNKELQDAYLGEAYFLRAFTHFFLFINYRNIPLIKELPKAPNEYKPQATPEEAWDFIIDDLIKAKDLLPDKNFWDAKNKGRVTKASAYALLGKSYLYRSGIEPKYGTSQTTYYNEAAAAFAEIINGNCGNYRLVDDYSWNFDVAHENNDESIFEVQFVGVLNTGFNPGFVDSGLFNDVRCKMCIMNRSRNSNSSAQVMHNWLYDKFVASKTVTGETDPRMFGSFVFNDNVSEIIRPKGMKVTFLEGKDWEAEMGSKEGTFGEQYELAMGYKMCSRKWLDWTLPPTDDAGGHFFNGRAQGVNWRMIRYSDVLLMYAEAVVMGGKATANITPLEAINKVRDRVGVPHVTEANMRTIEDERILELTYEGFRFFDLLRWGKVVERFRELENTDPLFKRFSRAQYMGFKENKNEWVPLPIDEVEGNPYITKNNPGW,not soluble
9,MGSSHHHHHHSSGLVPRGSHASMAAEMDWDKTVGAAEDVRRIFEHIPAILVGLEGPDHRFVAVNAAYRGFSPLLDTVGQPAREVYPELEGQQIYEMLDRVYQTGEPQSGSEWRLQTDYDGSGVEERYFDFVVTPRRRADGSIEGVQLIVDDVTSRVRARQAAEARVEELSERYRNVRDSATVMQQ,soluble
10,MSLNQSYFNLLGNITWLWMNSSLHKEWSCELLARNVIPAIENEQYMLLIDNGIPIAYCSWADLNLETEVKYIKDINSLTPEEWQSGDRRWIIDWVAPFGHSQLLYKKMCQKYPDMIVRSIRFYPKQKELGKIAYFKGGKLDKKTAKKRFDTYQEELATALKNEFNFIKKEGHHHHHH,soluble
11,MYLMSSIPPLIDLLPHDTPLALVDELIEVNDLSVHCQVTIGENNVFFDHETKTVPAWVGIEFMAQSIAGWSGYHAWKKGNKSPIGFLLGSRKYQAECSEFQQGDTLDIFAEQVLENNGMAVFSCYIEHKGQQLASSQLNVFVPTEEKLEELLTPKQLEHHHHHH,soluble
12,MAHHHHHHMYTRDVSDRISGISAADLAQRLVEVSARNTARDGALSPSVCQRPLPHCVSALLWDAKCAGAAPPRTALLRGDVVDMTSSVSDATLSCVALSDDVRFRFARSRHRRLTGILSSTAAPLPPRMCRVDVTHFYWMDECAPGLTYDDQSVLSTVLQKRIVQWAVSAFARNPLLRNISLQALEAVFPALLAFSPREREELLKHAAELLGQGTLIWYGQAMIKQFHESAASLALSLLTSSEERCSAALLFALATAQEVMGARRDDAAQALRFLLEVYGVRGVALSPALTTAALLVSRATVPLCTRRCLGAGSRQHHLLQPYLFPLSCAHVETLPWIPHNTHTSSPEHLRELVRRAREAAAAVLATAAPCTATTAQKRHAHEDDVNAFFSANHALEIHRDTLVTHASGDVPSSLPALKAADSGAAARSRLLEAAPKWWEQEAKASNSDTAREETELKLHVKAAAAELREPHGSDHALLAVIHRTRKRQRNREQPTAQTVEAALEGAAIRLKRRAFLQLVDIFALNAHTEDRDGKARQYLEQHHVAEAQIRDFTTLLSSTRKT,not soluble
13,MGSDKIHHHHHHMAILERKIIHEIDTSCSHIIYPQFVLPRHKHAEYEIMLFTQGSGKQFVGEGVADFQEGDIALIGSNVPHLHLCNSKLNPVANTVCSAGEALQFLPDIFPVHIENLPDYQEIYRLLRKSQYGVRFYDKGLYDEVKELFQEMDLLKHTNRLITILRILGRLTECRNIKLLSDVAYNGSNRLLEVNEPVNKVYTYLFNHFKEKVLLQEVADYVKQNPSALCRYFKQRTDKSIFQCLAEIRIEHACKLLSYSNLSVSQIAFESGFNSVPYFIKQFQSITEKTPGEYRELIGR,not soluble
14,MASISTPFPISLHPKTVRSKPLKFRVLTRPIKASGSETPDLTVATRTGSKDLPIRNIPGNYGLPIVGPIKDRWDYFYDQGAEEFFKSRIRKYNSTVYRVNMPPGAFIAENPQVVALLDGKSFPVLFDVDKVEKKDLFTGTYMPSTELTGGYRILSYLDPSEPKHEKLKNLLFFLLKSSRNRIFPEFQATYSELFDSLEKELSLKGKADFGGSSDGTAFNFLARAFYGTNPADTKLKADAPGLITKWVLFNLHPLLSIGLPRVIEEPLIHTFSLPPALVKSDYQRLYEFFLESAGEILVEADKLGISREEATHNLLFATCFNTWGGMKILFPNMVKRIGRAGHQVHNRLAEEIRSVIKSNGGELTMGAIEKMELTKSVVYECLRFEPPVTAQYGRAKKDLVIESHDAAFKVKAGEMLYGYQPLATRDPKIFDRADEFVPERFVGEEGEKLLRHVLWSNGPETETPTVGNKQCAGKDFVVLVARLFVIEIFRRYDSFDIEVGTSPLGSSVNFSSLRKASF,soluble
15,MGSDKIHHHHHHMGIPKRKLGERGPEVSAIGLGCMRMSFGQKKLPDRKEMIKLIRTAVELGINFFDTAEVYGPYTNEELVGEALEPFKGEVVIATKFGFELYEDGRPGWKGLNSNPEHIKKAVEGSLRRLRVEAIDILYQHRVDPNVPIEEVAGAVKELIEEGKVKHFGLCEASAETIRRAHKVCPVDVVQYEYSMWWRKPEEELLPTCEELGIGFVAYSPLGKGFLTGAIGENSKFDEEDSRSRIPRFQKENLRENLALVELRKTIAERKGATPSQIALAWLLAQKPWIVPIPGTTKLSHLLENIGGAFVELTPEELQEINDALSRIEIKGSRYPEDMEKMTYL,not soluble
16,MSLQLLAPGANTALANAHCSWNLESGTSSVFGEYAAVALLAVNEKRQPMGDPALLHQEQSWMEWSGGPQDVGCTLKLDRLPAGSDRVLLMVYVYAAMGPIRDFASLRLKVDANIEHRLDLRDNGEAAIIIGEFYKRNDQWKFRALSEGSAYGLSAFGRKIGLEVDDRHPRRPSGGSGGPAGGPRHESATGTAFVVGPAHVMTCAHVIEDMGVFYINSLEGRYKAEAVVIDRRNDIALLRVQGAPPLSAVTFREGQGCEPGDTVAVLGYPLASISGGGLQVTQGGISGLFGLHNDASLFQFTAPIQPGSSGSPLFDNGGAVIGMVTSTVPDGQNMNFAVKSALLMSFLQACRIDAPHARAERSYTTTEISRTFQSSLWLVEASREGHHHHHH,soluble

# From the DeepSol protein solubility set
